Reference: US20230125173A1

Assays:
TGFβ1 (R&D systems) = TGFβ1 (R&D systems) (UniProt P01137); test: cell-based or functional assay
[1] = biological target: IL2Rβ and common γ chain on 32Dβ cells; test: cell-based or functional assay

Chain of UniProt P01137 (P01137 279-390 limits assumed): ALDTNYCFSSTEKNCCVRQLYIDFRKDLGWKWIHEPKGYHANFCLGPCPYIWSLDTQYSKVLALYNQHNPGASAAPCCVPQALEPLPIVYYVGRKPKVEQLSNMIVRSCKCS

Row | Substance | IC50, inhibition of TGFβ1 (0.1nM stock) activity in HEK-Blue TGFβ reporter cells, QUANTI-Blue OD 620-655 nM (TGFβ1 (R&D systems)) | EC50, 32Dβ cell proliferation (WST1, absorbance at 450 nM) [1]
1 | TGFR-Fc (R&D Systems) (Fc fusion) | 0.461 nM | –
2 | recombinant IL-15 (from UniProt P40933 49-162) (ligand) | – | 0.0106 nM
